Measurements from the supplement of paper PMC10724198.
± gives the standard deviation of the averaged measurements.

Tested on: Saccharomyces cerevisiae
Test: protein stability index of tFT-peptide fusion (C-terminal peptide) (PSI (0-1 scale)); higher = more stable (slower turnover)
Settings: genetic background: wild type; temperature: 30 C
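Further: PSI is a weighted mean of sequencing reads over stability bins, variants kept only with over 10 reads, mCherry proximal and sfGFP distal, peptide attached via GGGS linker.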

Sequence | protein stability index
LFLFAPRPPPPP | 0.717 ± 0.03
WGTGGGLGVGHV | 0.726 ± 0.093
LLYPRYFSTGIT | 0.558 ± 0.065
AWGLKRSCRIKL | 0.678 ± 0.051
GGGGGGVSLGGR | 0.696 ± 0.072
PPASRPPPPTFL | 0.699 ± 0.047
DQRRKKKPIKGN | 0.736 ± 0.12
SWSLIFFGYFPF | 0.591 ± 0.029
PPRPPPPPRSTS | 0.672 ± 0.024
LGGASNGCSTLK | 0.718 ± 0.091
MPIKGRHSRSLK | 0.66 ± 0.044
FMVIRVGGWGVL | 0.646 ± 0.094
IKIKKKKKRNKR | 0.685 ± 0.057
GCVGGWCGGSGA | 0.698 ± 0.083
VGVRCVGVLFGV | 0.637 ± 0.0072
DVFCFWCVSGFV | 0.651 ± 0.082
IGIGVAGERLGV | 0.612 ± 0.059
SAVRHPRPGRPG | 0.6938 ± 0.0053
PPSPPPPAPPRA | 0.713 ± 0.023
CGWGVWGAKSGR | 0.6289 ± 0.0049
TTRYKKQNRRKE | 0.74 ± 0.24
CPALSPSPTLAS | 0.68 ± 0.15
PSPAPPPLPFPR | 0.72 ± 0.038
VRVKRAGGGGVG | 0.591 ± 0.028
MIKINHRIKIKY | 0.7115 ± 0.0039
ERRPYVAGRRRF | 0.6722 ± 0.0049

Sequence | protein stability index
SPLRHLPGPSFP | 0.696 ± 0.012
VSIMRLGSCRQD | 0.702 ± 0.033
AVLGGAGGGWAG | 0.687 ± 0.12
VECLDTKTTCNI | 0.73 ± 0.035
KQGHNEIMTKGK | 0.6814 ± 0.0015
PRLPPPPHPSRP | 0.698 ± 0.031
SSPEYIRNIQRS | 0.62 ± 0.029
RGRGGDERSVRG | 0.644 ± 0.013
NKSPWYYILQPM | 0.738 ± 0.082
HHEDGRPTCQAN | 0.677 ± 0.046
LSTTQSKTLNPR | 0.682 ± 0.052
PSSPPLPPPSPP | 0.644 ± 0.03
LRKDVRTRSNTK | 0.806 ± 0.051
HILSPRPAIGVL | 0.612 ± 0.021
PLPPPPIPLAPP | 0.708 ± 0.054
RPTSPCPNHRLE | 0.667 ± 0.097
PTPLPRISLTSV | 0.667 ± 0.025
FGIDVRPRPSQS | 0.698 ± 0.12
SNHYYFILSHFA | 0.661 ± 0.0093
VPPPRLPQPLFP | 0.717 ± 0.052
HTGLRASSPNST | 0.753 ± 0.052
SSGSLITIASPF | 0.745 ± 0.024
PPLSPLSPLAPP | 0.712 ± 0.038
VERDARGESCSR | 0.747 ± 0.18
PPPPLPPQPPPP | 0.654 ± 0.0073
DVVGRGRGPVRL | 0.802 ± 0.033

Sequence | protein stability index
GSQHSPRPFFFQ | 0.72 ± 0.038
PPLLTPPSTLFS | 0.661 ± 0.022
GFGKRGKDQDTY | 0.595 ± 0.033
APPPPGPLPPPS | 0.698 ± 0.025
AGRSAHMEVRHE | 0.712 ± 0.047
PPPVPPSPSPPP | 0.684 ± 0.013
KKETKLKKTEVK | 0.69 ± 0.095
QFQVWGAPGLKR | 0.711 ± 0.12
NTCKMRTRNIKA | 0.635 ± 0.0068
SPPATPWPPDLR | 0.627 ± 0.051
FLHLGGEWGVEG | 0.683 ± 0.041
SPFPLSSLRPLP | 0.7552 ± 0.0022
LPAPLLSPPRHF | 0.746 ± 0.072
KTMCNNLTKLQR | 0.622 ± 0.029
VQLHIDVRSFLF | 0.67 ± 0.014
LPPSNYPCPSGK | 0.706 ± 0.02
CLGLVSNCGLYV | 0.674 ± 0.041
LFSSLLLPNALR | 0.69 ± 0.038
PPGAPPYPSPPP | 0.569 ± 0.092
PCGGVGRECVRG | 0.762 ± 0.032
RPNWSRFTSIYA | 0.653 ± 0.016
QKWKIIRACVGC | 0.606 ± 0.049
PLAPYPPLPPPP | 0.69 ± 0.027
ESRVLYGLCLWC | 0.596 ± 0.028
SPTRFLPVPTPF | 0.75 ± 0.052
SRWFEFSFLSQV | 0.707 ± 0.049

Sequence | protein stability index
GGEGRGAFWGGE | 0.68361 ± 0.0002
SLGRYVDCLLGC | 0.6463 ± 0.0044
PFPSFLPLLLPS | 0.702 ± 0.069
VVGRCVWRGMGG | 0.688 ± 0.031
AYAPPSALPYPF | 0.729 ± 0.0075
GSWDEFGVYSRV | 0.6126 ± 0.0058
LPPPSPGLPLSP | 0.6773 ± 0.0059
PSCDCFLLLAPR | 0.665 ± 0.055
GGNTQTNYHGCL | 0.73227 ± 0.00035
NKKKKQRMKRNG | 0.719 ± 0.12
QKRKMIEKEKEK | 0.768 ± 0.098
PRRPATTSIPTT | 0.672 ± 0.038
KSVMVLRLLELK | 0.636 ± 0.032
AGPGMARERYFY | 0.634 ± 0.046
VTSVCGYVRIWW | 0.71 ± 0.047
VGSRGWGRWGVA | 0.693 ± 0.047
WPVPPASYPALS | 0.728 ± 0.14
TSMRRWSGRYGG | 0.743 ± 0.075
PPCPSSPHARPA | 0.69824 ± 0.00052
DGTTAIAGPHPT | 0.629 ± 0.052
PPTPPSLPPLSP | 0.665 ± 0.086
AVFWLRFSRISV | 0.618 ± 0.0094
TSVSLYWDSNLC | 0.751 ± 0.033
IYSPQIPTPPVL | 0.664 ± 0.058
SSPSALSLLLSV | 0.6876 ± 0.0049
PSSPSPLRPPSP | 0.666 ± 0.096

Sequence | protein stability index
PSPAPTPPTPHS | 0.721 ± 0.28
PPPRLSPTPSSR | 0.721 ± 0.05
SPLSLPTRSCLL | 0.7075 ± 0.0066
DGGSGQGMFGGS | 0.611 ± 0.039
LLLPPRLPNISP | 0.709 ± 0.044
GSNPYNRHLINI | 0.693 ± 0.02
NKSTAEVKMEIR | 0.686 ± 0.064
SLPPFPVTSRHP | 0.691 ± 0.011
FLLHHVSRSPSA | 0.692 ± 0.014
LHHPPSTHRGPD | 0.711 ± 0.004
GGGVGCRSRGAG | 0.595 ± 0.025
GRSHVGGCGGEG | 0.693 ± 0.035
AIRSSRMPLGSA | 0.668 ± 0.07
RRDLKNVRLPDR | 0.675 ± 0.055
IFRSLDFVFYFT | 0.646 ± 0.097
WKKYTKTKKKKN | 0.689 ± 0.021
SGRVGRGAADWR | 0.681 ± 0.029
SHIAIEKLHSKN | 0.709 ± 0.056
KKRTQKKKKYNR | 0.6943 ± 0.0063
VRVEGQCWMGRI | 0.679 ± 0.017
DRRETASGVSVR | 0.682 ± 0.025
GWESCLGVTRSV | 0.69 ± 0.018
GRKKKRREEKDT | 0.609 ± 0.027
IRPSNLRPPSYL | 0.682 ± 0.022
NGVVAYHVQSFC | 0.6 ± 0.011
LYHFYTASPCLI | 0.536 ± 0.044

Sequence | protein stability index
DRRRVIIKENKA | 0.675 ± 0.024
IVFYWLAHRPCA | 0.6297 ± 0.0059
RHTYSPRAPVPD | 0.707 ± 0.025
CRWLGELGVWVF | 0.637 ± 0.062
VQGSRKGSRERW | 0.683 ± 0.065
GVVVIVKYKMGV | 0.579 ± 0.031
VGVSGEGFSWVG | 0.675 ± 0.021
GLCLLSKDGCLV | 0.669 ± 0.055
TKRIKEERTKKC | 0.65 ± 0.025
SLLTSSPLPSPP | 0.696 ± 0.043
TKRQKQKKKNKE | 0.696 ± 0.071
PPWPPLVQPVSL | 0.708 ± 0.066
LPQSSRKEAHHH | 0.78 ± 0.062
SLEWGGGRRWPI | 0.719 ± 0.023
GGLEVDWVGCGV | 0.701 ± 0.012
LPPLAACAPSAV | 0.615 ± 0.051
LGMMIPQILDFV | 0.586 ± 0.014
IAEWVRLIVGEG | 0.671 ± 0.015
GMGESGAGMVGW | 0.727 ± 0.013
PLPLASVTPPYL | 0.669 ± 0.0067
SIRTKVVRNVVS | 0.625 ± 0.087
LGGAVLSRFGAR | 0.738 ± 0.047
SVRDRCKENERF | 0.658 ± 0.043
SPRPHRHLPFRP | 0.709 ± 0.0072
ASLLSCRLPCLC | 0.518 ± 0.026
TLWLSGGGGMVI | 0.731 ± 0.04

Sequence | protein stability index
SLPLPSPRPILR | 0.64 ± 0.0092
LRSCLSIYDCSS | 0.618 ± 0.16
GGLRPLFLCCLF | 0.569 ± 0.05
RRGCYLFTPRPG | 0.648 ± 0.015
LIVWAGACGVSR | 0.611 ± 0.014
KERLQLSVNLNI | 0.628 ± 0.067
RLTSPPYSFFLH | 0.644 ± 0.019
PTLFSLLLRAFL | 0.623 ± 0.13
TGSGQVSREERS | 0.671 ± 0.036
SCLMSFAFFASL | 0.619 ± 0.016
ALLGIAGGQAAQ | 0.714 ± 0.028
IKTVSDFLIVKL | 0.6998 ± 0.0055
GNRYLCIEVTWV | 0.48 ± 0.055
LPFFFPPFFITR | 0.532 ± 0.013
ITMYAPEVDKRR | 0.709 ± 0.017
PDQPQPRPATNQ | 0.681 ± 0.022
TCLGYKLHPARG | 0.718 ± 0.031
RGGVGGSVSFWW | 0.707 ± 0.072
PLRFLLPLLLPF | 0.582 ± 0.0087
GWGGGEGVEGEP | 0.678 ± 0.048
VGKYVVTKNGGC | 0.694 ± 0.043
PLPAPRHNALTT | 0.6137 ± 0.0045
PLAPNYPANTGT | 0.69 ± 0.021
GAVWAWRRLKGG | 0.619 ± 0.035
YRGSNWEGDTPS | 0.667 ± 0.054
PPLLPPLPFPPP | 0.74 ± 0.076

Sequence | protein stability index
ACVGGGGMKVLG | 0.713 ± 0.065
RCHGRVNLAEGE | 0.7564 ± 0.00055
PPLRLASSPPPV | 0.736 ± 0.062
SPFCGVRFRFCY | 0.632 ± 0.064
GWGSGSYRRRAV | 0.695 ± 0.055
GGGRGRWGPEGE | 0.6902 ± 0.0043
IFKSLEKKTKRV | 0.766 ± 0.0086
CSLQCLGWPISS | 0.739 ± 0.087
IGKWIKKKKQKG | 0.631 ± 0.023
EGVSNGCAILLF | 0.673 ± 0.029
GWGGGGGGRGWG | 0.71 ± 0.055
PRPAPGGSPALT | 0.689 ± 0.083
PIPPDPPAYQGQ | 0.6426 ± 0.0064
SCSLPCPRLPSD | 0.719 ± 0.15
GGAGSFVEKEID | 0.69 ± 0.044
NVIVRVPFVLEE | 0.692 ± 0.059
WVLGGSWLRCRK | 0.726 ± 0.014
AFFLVLSAFRWI | 0.541 ± 0.091
ISVSTDSPVRTW | 0.639 ± 0.023
YVLSVKEGTNLP | 0.709 ± 0.023
